Source: US20110223176A1 (AbbVie / Abbott, published 2011)

Experiments:
[1] = target: T1, human BSG2 (basigin isoform 2) on the cell surface (human, UniProt P35613 140-385); assay: receptor binding assay, Eu-labeled antibody on cells expressing human BSG2
T1 construct: Presented on stably transfected BAF3 cells or endogenously on human tumor cell lines (HepG2, MiaPaCa-2, DoHH-2); also called hBSG2; CD147
T1 sequence: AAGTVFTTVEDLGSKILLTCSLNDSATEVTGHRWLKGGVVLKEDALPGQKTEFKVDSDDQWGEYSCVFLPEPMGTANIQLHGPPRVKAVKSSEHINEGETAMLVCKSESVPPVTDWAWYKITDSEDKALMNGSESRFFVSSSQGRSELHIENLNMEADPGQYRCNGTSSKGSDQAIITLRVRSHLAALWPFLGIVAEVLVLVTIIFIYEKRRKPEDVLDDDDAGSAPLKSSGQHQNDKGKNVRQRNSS
Description: Cell lines expressing BSG2 were harvested and washed once in assay buffer (PBS, 0.1% BSA, 0.02% Na Azide, 10 mM EDTA) and resuspended to 5×10⁶ cells per mL. Serial 1:2 dilutions of ⁺³Eu-labeled anti-BSG2 antibody stock in assay buffer were made for final concentrations ranging from 1.6×10⁻⁸-7.7×10⁻¹² M, and a 4 mg/mL solution of unlabeled anti-BSG2 antibody was also prepared. To 96 well round bottom plates, 25 μl of ⁺³Eu-labeled antibody dilutions were added to 25 μl buffer (total counts), or 25 μl of unlabeled antibody were added to 25 μl buffer (background counts). 50 μl of cells at 2.5×10⁵ cells per well were then added to all samples, mixed gently, and incubated on ice for 1 hour. Cell bound antibody was then separated from unbound antibody by transferring 20 μL of the reaction mixture to Acrowell 96 well filter plates (Pall PN 5020), centrifuged for 5 min (2200 rpm), washed 3× with 150 μL cold assay buffer, and centrifuged for 5 min. Signal was determined by incubating samples with 150 μL/well of enhancement buffer and read using Envision. The specific counts were determined by subtracting the background counts (cells+labeled antibody+excess cold antibody) from the corresponding total counts (cells+labeled antibody) for each antibody concentration. The labeled antibody concentration versus total counts was analyzed using Graphpad Prism 4 to calculate Kd and Bmax values.

[2] = target: T1, human BSG2 (basigin isoform 2) on the …; assay: flow cytometry (FACS) on BAF3 cells expressing human BSG2
Description: (§1) Stable cell lines overexpressing cell-surface BSG2 or human tumor cell lines were harvested from tissue culture flasks, washed three times and resuspended in phosphate buffered saline (PBS) containing 1% bovine serum albumin and 1 mM CaCl₂ (FACS buffer). 5×10⁵ cells were incubated with antibodies at various concentrations in FACS buffer for 60 minutes on ice. Cells were washed twice and the bound murine monoclonal antibody was detected with a goat Fab′2 anti-mouse IgM+IgG+IgA (H+L) R-phycoerythrin-conjugated antibody (Southern Biotechnology Associates, Inc., Birmingham, Ala., Catalog No. 1012-08) diluted 1:500. Following incubation on ice (4° C., 60 minutes), cells were washed three times and resuspended in FACS buffer. Fluorescence was measured using a Becton Dickinson FACSCalibur-HTS (Becton Dickinson, San Jose, Calif., US). Data were analyzed using Graphpad Prism software and EC₅₀ values were reported as the concentration of antibody to achieve 50% of maximal BSG2 antibodies binding to BSG2 expressing cells.

[3] = target: T2, purified recombinant human BSG2 extracellular domain (human, UniProt P35613 22-325); assay: SPR (Biacore), mAb captured by anti-mouse Fc, BSG2 ECD injected, 25 C
T2 construct: also called Human BSG2 ECD
T2 sequence: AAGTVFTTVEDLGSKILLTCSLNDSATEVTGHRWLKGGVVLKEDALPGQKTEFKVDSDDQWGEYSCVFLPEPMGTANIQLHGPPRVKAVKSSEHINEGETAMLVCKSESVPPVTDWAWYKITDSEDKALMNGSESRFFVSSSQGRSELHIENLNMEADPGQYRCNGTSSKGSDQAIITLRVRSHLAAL
Description: (§2) Binding of BSG2 antibodies to a purified recombinant BSG2 extracellular domain (ECD) was determined by surface plasmon resonance-based measurements with a Biacore® instrument (either a Biacore 2000, Biacore 3000, or Biacore T100; GE Healthcare, Piscataway, N.J., US). The assay format for mAb affinity analysis was Fc-based capture via immobilized anti-Fc IgG. A standard amine coupling protocol was employed to immobilize Fc-specific IgG via primary amines to the carboxy-methyl (CM) dextran surface of CMS sensorchips. For the study of mouse anti-human BSG2 mAbs, anti-mouse Fc was used as the immobilized capture reagent. An automated protocol, available on the Biacore 2000, was used to immobilize 8000-10000RU of capture reagent in all 4 flowcells of the sensorchip. Binding was recorded as a function of time and kinetic rate constants were calculated. In this assay, on-rates as fast as 10⁷M⁻¹ s⁻¹ and off-rates as slow as 10⁻⁵ s⁻¹ can be measured.
(§3) Briefly, the CM-dextran surfaces were activated by freshly prepared 1:1 […] 3-(N,N-dimethylamino)propyl-N-ethylcarbodiimide (EDC). Then the anti-Fc IgG capture reagent (20 μg/ml in 10 mM sodium acetate, pH 4.5) was applied to the surface followed by deactivation of the surface and blocking of the residual reactive sites with 1M ethanolamine (pH 8.5). The running buffer employed was PBS-PB [1×PBS (Sigma P3813), pH 7.4, 0.005% P20 surfactant, 0.1 mg/ml BSA (Sigma-A7906)] and the assay temperature was 25° C. All reagents were diluted into running buffer to the specified concentrations. Each experimental cycle consisted of the following steps: (1) anti-BSG2 mAbs at 0.5 to 1 μg/ml were captured in flowcells 2, 3 or 4 to a level of 100-120RU. All measurements were referenced against flowcell 1 which had no captured anti-BSG2 mAb; (2) human BSG2 ECD was injected through all 4 flowcells, 240 μl at 80 μl/min. After the antigen injection, dissociation was monitored for 600 seconds at 80 μl/min; and (3) the anti-Fc capture surface was regenerated with 10 mM glycine, pH 1.5.
(§4) The BSG2 antibody binding affinities were determined by the BIACORE technology as described in Example 1.2. Table 10 represents the antibody binding kinetics against human and cynomolgus monkey BSG2 extracellular domain (ECD).

[4] = target: T3, cynomolgus monkey BSG2 extracellular domain (cynomolgus monkey); assay: as above
T3 construct: extracellular domain; also called Cynomolgus BSG2 ECD
Description: as §2, §3, §4

[5] = target: T1, human BSG2 (basigin isoform 2) on the …; assay: flow cytometry (FACS) on HepG2 hepatocellular carcinoma cells (cell-surface BSG2); HepG2 hepatocellular carcinoma cells (endogenous BSG2), not BAF3 transfectants
Description: as §1

Kd [1]: 2 nM
EC50 [2]: 0.41 nM
Kd [3]: 1.5 nM
koff [3]: 0.00059 s⁻¹
kon [3]: 400000 M⁻¹ s⁻¹
Kd [4]: 440 nM
koff [4]: 0.149 s⁻¹
kon [4]: 338000 M⁻¹ s⁻¹
EC50 [5]: 0.32 nM
B1: mouse anti-human BSG2 monoclonal antibody ML64-6A11-3A3 (antibody, mouse IgG2a, V domains shown)
VH: EVKLEESGGGLVQPGGSMKLSCVASGFTFSNFWMDWVRQSPEKGLEWIAGIRLKSYNYATHYAESVKGRFTISRDDSKSSVYLQMNNLRAEDTGIYYCTDWDGAYWGQGTLVTVSA
VL: DIVMTQSHKFMSTSVGDRVSITCKASQDVSTDVAWYQQKPGQSPKLLIYSASYRYTGVPDRFTGSGSGTDFTFTISSVQAEDLAVYYCQQHYSTPFTFGSGTKLEIK
notes: Hybridoma antibody, mouse IgG2a/kappa; also called 6A11-3A3 parental mouse antibody; Ab 3A3
